Results: a protein production outcome set (Wang et al. 2014)

Test: label from the status in PepcDB records

For “MTRSQNVLAGLLLAGLLAPHAVSAEGYQTPPPELAALVDAPRTPLQSLNPQGDAVLQTHRPGLPAIADVAQPELKLAGLRLNPRMRAASRFDFGSALTLLDVKSGKSRPVTGLPARPRIADNAWSPDGKQVALSLWGDRGVELWLLDAASARVRRLGDFHLNASSGRGFAWMGAQLLVKLLPAGQGPAPEKPSTPTGPNIQQSAGGALSQTRTYPDLLKTPYDADLLDYELNSQLALVDLSGRTKLIGKPDRYLSVQASPDRRYLLATKLQRPYSTLVPLNRFPRRIEVLNLQGDSVHLVAQRPLLERMPSGNDAVETGPREVQWRTDAPATLFWAEAQDGGDPSTPAKARDALYLLPAPFQQPPLKLQELASRFAGIQWGRGDLALVSEYWWKTRDLKVWRVRPAEPDHAPTLLNRRSSEDRYADPGSPAMVSNADGLPVLQTSPDGGSLYLLGEGASPEGDRPFIDQLNLADNKATRLWRSQAPWYEAPMAVLDGGKTALLSREQADAPPNLYLKTLGQGGGLKQLTFFPHPTPQLKNVQKRQLRYKRADGIDLTATLYLPPGYDAKRDGPLPMLMWAYPAEFKSADAASQVTDSPYRFNRVGYWGPEALLARGYVVLDDPSMPIVGAGKQEPNDTYLPQLKMDAQAAVDEVVRLGVADRDRIAIGGHSYGAFMTANLLAHTRLFRAGIARSGAYNRTLTPFGFQSEERDFWQAKDVYQAMSPFNYAEQIKDALLLIHGEADNNPGTFPIQSERMYQALQGLGGTVRLAMLPAESHGYRARESILHMLWEEDRWLDQFVKRAKPRAQGTAAR”, the protein production was “failed”.

In the case of “MQTWQQLYSPLGSLGLSALAAVIPIVFFFLALAVFRLKGHVAGSITLALSILVAIFAFQMPADMALAAAGYGFAYGLWPIAWIIVAAVFLYKLTVKSGQFEIIRSSVLSITDDQRLQVLLIGFCFGAFLEGAAGFGAPVAITAALLVGLGFNPLYAAGLCLIANTAPVAFGALGIPIIVAGQVTGIDAFKIGAMTGRQLPLLSLFVPFWLVFMMDGMRGVKETWPAALVAGLSFAVTQYFTSNFIGPELPDITSALASLISLTLFLKIWQPKRTAGAQIAGATSSAAITASAGGFGQPRQTQASPYSLGQIFKAWSPFLILTVLVTIWTLKPFKAMFAAGGSMYGWVFNFAIPHLDQLVIKMAPIVTTPTAIPAVFKLDPISATGTAIFFSALISMLLLKIDFKTGLTTLKETFYELRWPILSIGMVLAFAFVTNYSGMSSTMALVLAATGAAFPFFSPFLGWLGVFLTGSDTSSNALFSSLQATTAHQIGVNDTLLVAANTSGGVTGKMISPQSIAVACAATGLVGKESDLFRFTLKHSLFFATIVGLITLAQAYWFTGMLVH”, the protein production is reported as “failed”.

In the case of “MGEGGEMGVGIFQIDMDWLHRWLRHRRGPGSGKTSGNRNLKPRLTPAAAQQDHRQMLCFMTLNAAVGVLIGICVGAALIFLDIGGLGARIGRAASPFVPVLLVVVPIASLFGAAAAASAILLMPYEKKFRDDDDDARGE”, the protein production is reported as “failed”.

In the case of “MTDIIREYYNKNSKNEWLRLNDPYNRLELFSTMYMIKEYFPQEGKILDIGSGPGRYSIELLKRGYEVSLMDLSEKSIDMAKNNIESMGLKANDYICGDALYLDFIKDNTFDGILLMGPMYHVKSREDRIRILENCMRILKPGGIILIAYINSLGVLKVGLSDFPQEYKDINKIYDLFDEKGFSQEESFTETYFTVPEKAISEVNEVGFNILSRAGAESFLSGQAFYMTKYYLEDKEIYFNLLKVATEKCEDERFRDSTEHLIIVAKK”, the protein production is reported as “failed”.

For “MLNFKTFSDLRPKKTRAFVFVKILRLWNWPPNYFGEEPTMILVDEKGHRIDAKSSRHAYKEEMISTLREGKWYILSNFKVVVANPLERFSTHVFQIEFLKKTTMEPVTPKSRYHFIECVDFHTIKHAAPIQKKFVVDAMGVIESVSPIGKIPWVARDWESDFASRYLVFTLKDSMHKYIKCVAVGSSCEEFERKWYKKISEPNFKMEPVMIILRFWKISEFEGKPCLISVYGCSKVHIDPNFRGIDKNNYL”, the protein production was “failed”.

With “MVSNSSITFKEFVDYWFEAYASTAVKPSTQKRYRQLLKPALRAIGNKPLNKVKPLDIQNIYIALAGTQSNCTILKLHRLLHEIFKHAQMWEYISDNPVKKVVPPTPEKKVFDLEHHHHHH” the protein production was “failed”.

With “MRKVRPEELPALLEEGVLVVDVRPADRRSTPLPFAAEWVPLEKIQKGEHGLPRRPLLLVCEKGLLSQVAALYLEAEGYEAMSLEGGLQALTQGK” the protein production was “not failed”.

In the case of “MSSACDAGDHYPLHLLVWKNDYRQLEKELQGQNVEAVDPRGRTLLHLAVSLGHLESARVLLRHKADVTKENRQGWTVLHEAVSTGDPEMVYTVLQHRDYHNTSMALEGVPELLQKILEAPDFYVQMKWEFTSWVPLVSRICPNDVCRIWKSGAKLRVDITLLGFENMSWIRGRRSFIFKGEDNWAELMEVNHDDKVVTTERFDLSQEMERLTLDLMKPKSREVERRLTSPVINTSLDTKNIAFERVFRVLKLTLLQLTVCS”, the protein production is reported as “failed”.

With “MAFLKVVPLEKALEVVQSFKISPGIEEVPIEKGLGRIAAEDIYSPIDVPPFDRATVDGYAVRAEDTFMASEASPVRLKVIGSVHAGEEPKFKLGKGEAAYISTGAMLPGNADAVIQFEDVERVNGEILIYKPAYPGLGVMKKGIDIEKGRLLVKKGERLGFKQTALLSAVGINKVKVFRKPKVAVISTGNEIVPPGNELKPGQIYDINGRALCDAINELGGEGIFMGVARDDKESLKALIEKAVNVGDVVVISGGASGGTKDLTASVIEELGEVKVHGIAIQPGKPTIIGVIKGKPVFGLPGYPTSCLTNFTLLVVPLLLRALGREGKIGKKVARLKHKVFSVKGRRQFLPVKLEGDLAVPILKGSGAVTSFIDADGFVEIPETVESLDEGEEVEVTLFKGW” the protein production was “not failed”.

With “MLLISKKSALAAASTTLFVLLWSSGAIFSKWGLAHASPFAFLLLRFVIALIGLMLLAPLLKLRLPRGRRAMGFAVATGLVLLGAYQIFYILALDLKVTPGVMATIMGVQPILTVVLMERQRSWSRLFGLSLGLAGLVMVVYQSIGLAGMSITGMLCGLLALVSMTAGSIMQKRITDNPLGTLPVQYLAGLLLCALFVPFQPFHFEHSAGFVIPLLWMGLVVSVLATLLLYRLIAQGNLVNVTSLFYLVPAVTALMDYLFFGNRLGLLSLVGMGLIIVGLVFVFRKQP” the protein production was “not failed”.

In the case of “MLELFLKSFLTLFVVMDPVGLVPVFVALAGDRPHRTQVLIARKAVLVAGGLLTFFYFFGRELLGHLGISLEALRIAGGVLLFRIATEMVFAHHERETEEERDEALSRADISVFPLAIPLIAGPGALASVLVLGAEAKGVPYGFAVVLFTAYLVLFLAYLFLRGATAVRRALGRTGVNVVTRVLGLLLAALAVQYVADGVRGLL”, the protein production is reported as “failed”.

With “MYPKQFLKFGETSLFQETVLRCLEVSDISEVFVVTNEAQKFFVIGQIKEAGYSIPPENILIEPEGKNTLPAIFFGMKEIEKKFGDSIVGVFSSDHVLDRAAMATISSAENLASDYLVTFGVVPTFPHTGYGYIKASEACSPGYRVSEFREKPDFETAKKYIEEGCLWNSGMFLFETRLFFEEARKHAPSVYGCFEKEGDINQIYECVDNISIDYGIMEKSDKVAVVRLDHKWSDLGNFAAIYDELEKDSVGNVIHDCDPMLLNSDGNLVYSRCGKIVSLIDVKDMVVVDTSDALLICPKSSSQKVKEIVSELKGRKDERAFIGQTVYRPWGSYTLLDASPGHKIKNITVLSDHKLSLQLHYHRSEHWVVVKGMACVEVDGKQFFLGPGESTFIRAGQKHRLSNPGKLPLEIIEVQLGELVDEEDIVRFDDVYGRRLEHHHHHH” the protein production was “not failed”.

In the case of “MSHHNPLVSVVIPSKNRPDLVIATLVSVIDQTYDNIEIIVVDDGSDMPLAPLLKDRFSDRVLCLRNDQSLGGAVARNRGAQSAHGDYITFLDDDDLWLPKKLEMQVDAFSKHGVDIGVVYCGFDFLCKEEIVPRQNKFHNDYDLSIAVLSGCPFGSPTPLIRKHYFDMVGGFDRELPSCQDWDLWIRLSKVCGFYPVKESLALYRVHGDQISTNLRKKIDGRKMVLAKHYDEIKNYPRVLSAHYSRIGSLCVLADEHVEARDFFSKALASNMFDGGSFVHLVLQFLCRPLEKWLIERFSVNTIDGIKVIHLEHHHHHH”, the protein production is reported as “failed”.

With “LMLACMNMARKKTGALIAIQQGIDLTPFAHTGEVFRAEVNARLVENIFFKNSPLHDGAMVIADNSIIAAGCILPVAYNTDLNKDLGLRHRSALGLSQETDAKIIIISEERGRISFAYRGEIHQDITTDELQLLLED” the protein production was “failed”.

For “MKHMEKFANHFGYNRMFAKDQLTLGVHIPIENYQFHAPTMEKQVELVQKAEQYGFTGVWLRDVLLQDPDFGDPATGQIYDMMIYLTYLASKTEKIAFGTSATVLSLRHPLRVAKEIATLDQLFPERIMLGVSSGDRRADFKALGVSHETRGEKFREAFAYLEEILYKNFPSIQSTLGEVHGANLVPKPSKRVPTFITGFSQQNMEWFAEHGDGWMYYPRSPVHQAGAIGQWRELVEDYHPDVFKPFIQPMHLDLSEDPNERPTPIRLGYRTGRKALIELLDIYKSIGVNHLFLALFDGQRPADEVLDELGEEVLPHFPAL”, the protein production was “not failed”.

In the case of “MEENKPVFSIITVCYCARDIIAKTAHSVLSQTYPNIEYIVVDGASPDNTAEVVRSLSSDIRLISEPDKGLYDAMNKGLRMALGDYVWFLNAGDLLPSDDLVEAIANGIKSSPMGLPDVLYGDTMLIDATGKEKGLRRLRPPFELQWRSFADGMLVCHQAFIAKRLIAPPYNMKYRFSADFDWCIRILQAARNIVNTEMILVHSLDDRGGITYKNHKASLKERFLIMKHYYGSRKSIMKHLSFFFRRKR”, the protein production is reported as “failed”.

With “MDIGFLVFGLAGLLTLVCFMPPLAGRLKLPYSVLLALVGCLLGIGVHLHGWAPPVLGDLLDTIEHFEISSETFLMVFLPVLLFETALSMNVRRLIDDIGPILMMAIVAVVVCTLVVGFAVDAVSSYGLIVCLLLGAIVATTDPAAVVGIFREVGAPKRLTTLVEGESLFNDAASIALYSVLLAALGGSGELSVGAVFNDFIFHFVGGGLAGFLMGRLACALFAWLRGFPTAEITLTLTLAYLSFFISEHYLGVSGVVATVIAGLVVGSTGRTRMSPTTFEFLSSAWGQFGFWANSLIFLFAAMLIPKLMAEADWQELLLVLVVFAATLAARAIVVFGLLPLLRVARIGAEVSNPYKSVMWWGGLRGAVSLALALAVTEQSSVPEQARQFVAVATTGFVLMTLMINGVSLRPLIRMLGLNQLSPVERTIRNQVLAAALEDLQGRTEEIAKVDHVNPEARDRIRAVFDASLTSVHDGQVGQMTLDQRVAVGLSIVARREEEMFFDILKAQIVDWRLAEGLLARAERLEDAVRAGGLAGFEAGIVADVRYSRLFRMALRTHYMFGFQGWLARELGKRFASLLTKRSVARDLMKFAREQVAPLLGEEAADRIIAAHQRRLDLIENALQALTLQYPSYSLWLQESHLGRVARELERRRYRDMLEQFLISGEVYADLMAQLKARWQHIDKHPPLDIELGSAELVKRVPLFEGLSQDSLRAICRLLKPRLALPDQHILTEGRHGQEMCIVASGAVVVHLPDHTTIELGSGEFFGELALLGEEQLVPDVTSLGYSKLLMLSARDFHALLARDEHLRERIQTVAKQRMRAIEVWKQYSQAAAAAAASTASEDSAPA” the protein production was “failed”.

For “MLSTMQPTLATNYTTIPCYQLCYQHYATNLAPIIRSTGSMILNYAIIRLSLQQNLCYRKTCVRDTAQYDPPCNKIYTTGLCCSRTYKTLQAFFLDMSETPQKLREEAVKYFNETLDLMQKGENAEALESLRKAESSAQKAEDGPILFHILKVRGQLLQSLDMLEEALETYAFSLIMSEKLLSEDPENKLYTDTLHLNLNNLGNLGNAFQRMGNFPSSKQAYEIGIEICQNLLNSYPENEFYRMYAGNTLNNLGELLFTMGEPEEAKEKYEEALKTYSLLLKNSPEKPEYLSDTAMTLNNLGNLYSEKGQEAEAKENFEKALEILKKRSEKEPGNEKLREEIRITQEKLEAI”, the protein production was “failed”.
